Molecular target: ACE2-ECD-sFc fusion protein (Homo sapiens)
Assay: ELISA, plate coated with ACE2 ECD-sFc

Substance | EC50
S1-RBD-His protein (from UniProt P0DTC2 331-530) (ligand) | 0.4 µg/mL
S1-RBD-His-HRP (from UniProt P0DTC2 331-530) (ligand) | 0.19 µg/mL

From US20230109393A1
